According to the supplement of paper PMC11908140:

B1: library; numbered along this chain (parent)
chain: MRKPRAAVGSGHRKQAASQEGRQKHAKNNSQAKPSACDGLARQPEEVVLQASVSSYHLFRDVAEVTAFRGSLLSWYDQEKRDLPWRRRAEDEMDLDRRAYAVWVSEVMLQQTQVATVINYYTGWMQKWPTLQDLASASLEEVNQLWAGLGYYSRGRRLQEGARKVVEELGGHMPRTAETLQQLLPGVGRYTAGAIASIAFGQATGVVDGNVARVLCRVRAIGADPSSTLVSQQLWGLAQQLVDPARPGDFNQAAMELGATVCTPQRPLCSQCPVESLCRARQRVEQEQLLASGSLSGSPDVEECAPNTGQCHLCLPPSEPWDQTLGVVNFPRKASRKPPREESSATCVLEQPGALGAQILLVQRPNSGLLAGLWEFPSVTWEPSEQLQRKALLQELQRWAGPLPATHLRHLGEVVHTFSHIKLTYQVYGLALEGQTPVTTVPPGARWLTQEEFHTAAVSTAMKKVFRVYQGQQPGTCMGSKRSQVSSPCSRKKPRMGQQVLDNFFRSHISTDAHSLNSAAQ

Variants of: B1
Assay: 8OG:A repair function score (normalized; synonymous = 0, nonsense = -1) (normalized log-likelihood score); higher = more repair activity (WT-like)
Settings: with 8OG:A DNA repair reporter (GFP) in HEK-293 MUTYH KO cells
How it was run: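 After 72 h, viable mCherry+ cells were split into GFP+ (repair) and GFP− bins in three replicates per tile. These cells were MUTYH knockout HEK-293 cells holding lentiviral MUTYH cDNA NNN codon-scan libraries, kept in 10 pg/ml doxycycline and co-transfected with mCherry plus an 8OG:A GFP repair reporter. Sequencing of tile amplicons gave per-tile Rosace fitness scores, normalized into a repair function score anchored on synonymous and nonsense distributions. Synonymous medians were fixed at 0, nonsense at -1, and variants under 300 counts per million at the start were removed.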
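Further: cells sorted at 72 h after reporter transfection.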

8OG:A repair function score, by site and new letter:
F200: A -0.576 | W -0.182 | M 0.0616 | S -0.54 | I -0.505 | C -0.266 | N -0.427 | V -0.545 | L -0.252 | R -0.97 | Y 0.0681 | K -0.874 | Q -0.502 | T -0.739 | D -0.891 | P -1.02 | E -0.847 | G -0.582 | H -0.308
I198: G -1.05 | E -0.552 | C -0.474 | L -0.391 | K -1.06 | M -0.189 | T -0.36 | S -0.757 | F -0.447 | V -0.254 | P -0.841 | D -1.1 | H -0.963 | Y -0.792 | N -0.562 | R -0.575 | A -0.548 | Q -0.466
G193: C 0.0546 | L -0.637 | I -0.531 | T -0.169 | Q -0.238 | F -0.465 | D -0.37 | P -0.524 | E -0.722 | A -0.0458 | W -0.832 | R -0.0604 | Y -0.241 | S 0.0283 | H -0.0997 | V -0.346 | K -0.203 | N 0.0644 | M -0.156
I195: T -0.534 | N -1.12 | Q -1.01 | G -0.964 | K -1.05 | W -0.908 | F -1.08 | H -1.14 | R -1.02 | C -0.59 | M -0.23 | D -1.1 | L -0.287 | P -1.04 | S -0.944 | V -0.0879 | A -0.996 | E -1.06 | Y -0.741
A192: W -1.16 | Y -1.07
A196: K -0.993 | W -1.18 | T -0.342 | F -0.939 | L -0.68 | S 0.00714 | G -0.309 | Y -0.723 | D -0.616 | M -0.507 | C -0.233 | R -0.93 | P -1.11 | E -0.674 | N -0.697 | Q -0.897 | H -0.673 | I -0.703 | V -0.382
G201: R -0.0601 | C -0.103 | H 0.0082 | N 0.0301 | A -0.14 | S -0.0385 | K 0.012 | I -0.543 | D -0.0211 | L -0.298 | P -1.06 | F -0.266 | E -0.32 | Q 0.039 | M -0.244
S197: Q -1.14 | V -0.973 | P -1.3 | A -0.271 | W -1.37 | H -1.22 | D -1.04 | C -0.73 | T -0.695 | F -0.956 | N -1.17 | G -0.747 | I -0.959 | Y -0.898 | K -1 | R -1.21 | E -0.903 | L -1.13
A194: W -1.05 | Y -1.23 | G -0.624 | L -0.733 | H -1.31 | P -1.06 | N -0.737 | I -0.291 | F -1.16 | E -0.986 | S -0.169 | K -1.06 | D -1.03 | C -0.313 | Q -0.577 | T -0.422 | M -0.32 | R -1.1 | V -0.443
A199: F -1.13 | Y -1.05 | Q -1.11 | M -0.87 | W -0.8 | N -0.885 | L -1.01 | T -0.214 | E -1.06 | H -0.874 | C 0.000923 | I -0.536 | P -1.07 | G -0.183 | K -1.14 | V -0.155 | R -1.16 | D -1.07 | S -0.171
